The source of these data is the supplement of paper PMC9170038.

The data set relates to MS2 coat protein. Kind of data set: apparent KD of MS2 coat protein; designed switch direction (-1 OFF switch, 1 ON switch): -1; higher = weaker reporter binding. In outline: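 The reported apparent KD is a per-design median over clusters, from curve fits of normalised cluster fluorescence. Protein titrations used SNAP-549-labelled MS2 coat protein, doubled from 0.7 or 1.5 nM to 3 µM, in Tris-HCl pH 7.5 buffer with KCl, MgCl2, BSA, DTT, tRNA and Tween-20, with no input, 200 uM small-molecule ligand, or an oligonucleotide input. The RNA switches were transcribed on Illumina chips by stalled E. coli RNA polymerase.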

The mark [1] stands for this setting: input ligand: microRNA oligo, concentration not stated.

On to “ACAUGACUGCUAGGAUAUAGAUGACAUGAGGAUCACCCAUGUUGUCUCAUGUUUAUGGAAACGGACUAGAAGGAGUAGUAUAUG [Ex NG2 #15] (Eterna round: R96, puzzle: Exclusion NG 2)”, for which the “apparent KD of MS2 coat protein” value runs as follows: (input ligand: FMN 200 uM) 20.6 nM; under setting [1], 14.5 nM; (input ligand: none) 21.3 nM.
For “ACAUGAGGAUCACCCAUGUAAACAUGAUGGCUGAUGUAGAGCUAGGAUAUGAGUGGCUUUCUAUCUCAGAAGGAGCUUGACUGG [Deportation 43 - Jieux - Exclusion NG 3] (Eterna round: R96, puzzle: Exclusion NG 3)”, the “apparent KD of MS2 coat protein” value amounted to 30.8 nM (input ligand: FMN 200 uM), 22.8 nM under setting [1] and 35.7 nM (input ligand: none).
For “ACAUGAGGAUCACCCAUGUAAUCAUGAUGGCUGAUGUAGAGCUAGGAUAUGAGUGGCUUUCUAUCUCAGAAGGAGCAAGACUGG [Deportation 40 - Jieux - Exclusion NG 3] (Eterna round: R96, puzzle: Exclusion NG 3)” the same measures were 44.1 nM, 31.6 nM and 36.8 nM.
Take “ACAUGAGGAUCACCCAUGUAAUGAUGGGUACUAUAUUAUUCGUAGGAUAUCGUUGUUAGUUUGUUCGAGAAGGACGUUUGCCUU [JR_ExcNG3_Sub055] (Eterna round: R96, puzzle: Exclusion NG 3)”: the “apparent KD of MS2 coat protein” value under setting [1] amounted to 824 nM.
In the case of “ACAUGAGGAUCACCCAUGUACAGGGUUUAGUUUCAUCGUUUGAAGGAUAUACUCCGUUAGUUGUCGUAGAAGGUCACAGUUUGG [JR_ExcNG3_Sub007] (Eterna round: R96, puzzle: Exclusion NG 3)”, the “apparent KD of MS2 coat protein” value is, setting by setting: (input ligand: FMN 200 uM) 179 nM; under setting [1], 128 nM; (input ligand: none) 178 nM.
Taken in the same sequence, the figures for “ACAUGAGGAUCACCCAUGUACUGGGUUUAGUUUCAUCGUUUGAAGGAUAUACUCCGUUAGUUGUCGUAGAAGGUCACAGUUUGG [JR_ExcNG3_Sub008] (Eterna round: R96, puzzle: Exclusion NG 3)” were 457 nM, 407 nM and 517 nM.
For “ACAUGAGGAUCACCCAUGUCCGGCUGGUCUGUUCCGGCUGUCGAGGAUAUAGUCCGGUGUUCGCGCUAGAAGGCGAGGGCUGGA [Aenatbe mod 48] (Eterna round: R96, puzzle: Exclusion NG 3)” the same measures were 88 nM, 29.9 nM and 43.6 nM.
For “ACAUGAGGAUCACCCAUGUCCGGCUGGUCUGUUUCGGUUGUCGAGGAUAUAGUUCGGUGUUCGCGCUAGAAGGUGGGAGCUGGC [Aenatbe mod 57] (Eterna round: R96, puzzle: Exclusion NG 3)” the same measures were 143 nM, 108 nM and 175 nM.
For the sequence “ACAUGAGGAUCACCCAUGUCCGGCUGGUCUGUUUCGGUUGUCGAGGAUAUAGUUCGGUGUUCGCGCUAGAAGGUGGGAGCUGGG [Aenatbe mod 56] (Eterna round: R96, puzzle: Exclusion NG 3)”, the “apparent KD of MS2 coat protein” value was determined as 161 nM (input ligand: FMN 200 uM), 116 nM under setting [1] and 147 nM (input ligand: none).
Taken in the same sequence, the figures for “ACAUGAGGAUCACCCAUGUCCGGUUGGUCUGUUCCGGCUGUCGAGGAUAUAGUCCGGUGUUCGCGCUAGAAGGUGAGGGCUGGA [Aenatbe mod 46] (Eterna round: R96, puzzle: Exclusion NG 3)” were 775 nM, 259 nM and 500 nM.
For “ACAUGAGGAUCACCCAUGUCCGUCUGGUCUGUCUCGGCUGUCGAGGAUAUAGCUCGGUAUCCGCGCUAGAAGGCGGGAGUCGGU [Aenatbe mod 93] (Eterna round: R96, puzzle: Exclusion NG 3)” the same measures were 73.6 nM, 66.7 nM and 88.5 nM.
Consider “ACAUGAGGAUCACCCAUGUCUGGCUGGUCUGCUCCGGUUGUUGAGGAUAUAGUUCGGUGUUCGCGCUAGAAGGUGAGGGCUGGC [Aenatbe mod 38] (Eterna round: R96, puzzle: Exclusion NG 3)”, for which the “apparent KD of MS2 coat protein” value was 34.4 nM (input ligand: FMN 200 uM), 32.1 nM under setting [1] and 39 nM (input ligand: none).
As to “ACAUGAGGAUCACCCAUGUGAAAACAAUGGCUGACUUUGAGACAGGAUAUAGGUGCAUAUCAAACCUAGAAGGGUCAUUACUGG [Deportation 93 - Jieux - Exclusion NG 3] (Eterna round: R96, puzzle: Exclusion NG 3)”, the “apparent KD of MS2 coat protein” value was found to be 43.5 nM (input ligand: FMN 200 uM), 31.6 nM under setting [1] and 38.2 nM (input ligand: none).
For “ACAUGAGGAUCACCCAUGUGAAACCAAUGGCUGACUUUGAGCUAGGAUAUUCGUGCAUAUCAAACGAAGAAGGAGCAUUACUGG [Deportation 97 - Jieux - Exclusion NG 3] (Eterna round: R96, puzzle: Exclusion NG 3)” the same measures were 36.9 nM, 31.5 nM and 34.8 nM.
Regarding “ACAUGAGGAUCACCCAUGUGACCACAAUGGCUGAUGUAACAACAGGAUAUUCGUGAAUAUCUAACGAAGAAGGGUUAUGACUGG [Deportation 63 - Jieux - Exclusion NG 3] (Eterna round: R96, puzzle: Exclusion NG 3)”, the “apparent KD of MS2 coat protein” value under setting [1] was found to be 51.4 nM.
With “ACAUGAGGAUCACCCAUGUGCACGUAAUGGCUCAUGUAGAGUCAGGAUAUGCGUGGCGAACUCGCGCAGAAGGGACAAGACUGG [Deportation 20 - Jieux - Exclusion NG 3] (Eterna round: R96, puzzle: Exclusion NG 3)”, the “apparent KD of MS2 coat protein” value by setting is: (input ligand: FMN 200 uM) 23.5 nM; under setting [1], 25.6 nM; (input ligand: none) 34.6 nM.
For “ACAUGAGGAUCACCCAUGUUUGGCUGGUUUUCUCCGGCUGUCGAGGAUAUAGUCCGGUAUCCGCGCUAGAAGGUGAGGGCUGGC [Aenatbe mod 5] (Eterna round: R96, puzzle: Exclusion NG 3)” the same measures were 14.5 nM, 13.1 nM and 20.4 nM.
As to “ACAUGUCAUUGAGGAUAUCGCACACAUGAGGAUCACCCAUGUAAACGGAUGCUCUUACGUGGGUUCGAGAAGGCGAUGUACAUU [Ex NG2 #95] (Eterna round: R96, puzzle: Exclusion NG 2)”, the “apparent KD of MS2 coat protein” value by setting is: (input ligand: FMN 200 uM) 458 nM; under setting [1], 112 nM; (input ligand: none) 142 nM.
Taken in the same sequence, the figures for “ACAUGUCAUUGAGGAUAUCGCACACAUGAGGAUCACCCAUGUAAACGGAUGCUCUUUCGUGGUUUCGAGAAGGCGAUGUACAUU [Ex NG2 #97] (Eterna round: R96, puzzle: Exclusion NG 2)” were 438 nM, 335 nM and 182 nM.
Taken in the same sequence, the figures for “ACAUGUUGCGCAGGAUAUGGGACACAUGAGGAUCACCCAUGUGGCUACAUGUCAUACCAAGCGUCUCAGAAGGGUGUUAACAUG [Ex NG2 #36] (Eterna round: R96, puzzle: Exclusion NG 2)” were 20.1 nM, 14 nM and 17.7 nM.
For the sequence “ACCACCUUAGUCAGGAUAUAGCUUCUAGCAAGAUACUAGAAGGGACAUGAGGAUCACCCAUGUAAAGGUGCUAA [Ramais] (puzzle: Brourd's mod of Exclusion 4)”, the “apparent KD of MS2 coat protein” value by setting is: (Eterna round: R95, input ligand: FMN 200 uM) 25.3 nM; (Eterna round: R95, input ligand: microRNA oligo, concentration not stated) 29 nM; (Eterna round: R95, input ligand: none) 27.2 nM.
On to “ACCAGCAUACGGAGAUCCAACAUGAGGAUCACCCAUGUCUGGAAAGCUUUUUGCUUGUCUUAUCCUCCUCUGUGUGC [Design #2] (Eterna round: R97, puzzle: Sensor, turn-off variant 1)”, for which the “apparent KD of MS2 coat protein” value was 17.5 nM (input ligand: FMN 200 uM) and 16.6 nM (input ligand: none).
Taken in the same sequence, the figures for “ACCAGUAUAUGGAGAUUUUACAUGAGGAUCACCCAUGUUGGGACAGCUUUUUGCUUGUCUUAUCCUACUUUGUGUGU [Design #3] (Eterna round: R97, puzzle: Sensor, turn-off variant 1)” were 32.2 nM and 36 nM.
As to “ACCAGUGGAGGAUAUACAUGAGGAUCACCCAUGUGUUGAAUAGGUGGAGAACCACAAAGUAGAAGGCCACUGGA [jl-ex3-4.79 jandersonlee automod] (Eterna round: R97, puzzle: Exclusion 3)”, the “apparent KD of MS2 coat protein” value runs as follows: (input ligand: FMN 200 uM) 1000 nM; (input ligand: none) 76.6 nM.
Turning to “ACCAUUACCACACCCUCUAUACAUGAGGAUCACCCAUGUUCUGAGGAUAUCAUCGCUCGCCGCGUUGAGAAGGCAGAGCAUUAA [Tiisri] (Eterna round: R96, puzzle: Exclusion NG 3)”, the “apparent KD of MS2 coat protein” value reads like this: (input ligand: FMN 200 uM) 50.8 nM; under setting [1], 9.21 nM; (input ligand: none) 15.1 nM.
With “ACCAUUUUACGAUAUGUGCACAUGAGGAUCACCCAUGUUCCGAUAAACAUUUGAAGUACAGCAGGCUGCUCGAUCUG [Eternabot (L2) Solution 45] (Eterna round: R97, puzzle: Sensor, turn-off variant 1)”, the “apparent KD of MS2 coat protein” value by setting is: (input ligand: FMN 200 uM) 94.2 nM; (input ligand: none) 87.4 nM.
For “ACCUCACAUGAGGAUCACCCAUGUAAGGAUAUCUUCGCUUUGACGUUGCUCUAUGCGAAGAGAAGGUACACGGA [Xeteed] (Eterna round: R97, puzzle: Exclusion 1)” the same measures were 84.8 nM and 20.6 nM.
Taken in the same sequence, the figures for “ACCUCACAUGAGGAUCACCCAUGUCAGGAUAUCUAAUAUAGUAGCGUUCCCGACGCUAAGAGAAGGGACAUUAA [EX1 #32] (Eterna round: R97, puzzle: Exclusion 1)” were 23 nM and 13.9 nM.
